# T1: Ple E12–24 (M546–E1128) (rat, UniProt P30427 546-1128)
# T1 sequence (looked up): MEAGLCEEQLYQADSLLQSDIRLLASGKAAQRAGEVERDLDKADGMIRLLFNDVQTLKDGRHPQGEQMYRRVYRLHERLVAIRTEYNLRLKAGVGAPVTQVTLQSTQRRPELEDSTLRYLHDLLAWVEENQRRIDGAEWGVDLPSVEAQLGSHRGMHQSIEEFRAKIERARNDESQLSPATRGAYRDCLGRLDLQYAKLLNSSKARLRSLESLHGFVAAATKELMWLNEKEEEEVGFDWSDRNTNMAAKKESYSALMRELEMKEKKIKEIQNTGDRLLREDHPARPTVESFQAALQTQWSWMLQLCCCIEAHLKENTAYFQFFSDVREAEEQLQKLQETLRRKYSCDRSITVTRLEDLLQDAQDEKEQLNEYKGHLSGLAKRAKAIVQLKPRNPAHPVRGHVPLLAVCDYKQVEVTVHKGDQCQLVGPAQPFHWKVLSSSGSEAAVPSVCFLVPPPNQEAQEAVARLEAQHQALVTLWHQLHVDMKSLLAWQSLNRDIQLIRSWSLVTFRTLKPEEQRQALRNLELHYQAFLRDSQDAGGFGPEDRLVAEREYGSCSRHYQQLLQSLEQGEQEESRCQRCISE
# T2: Ple R4–C (L3850–A4687) (rat, UniProt P30427 3850-4687)
# T2 sequence (looked up): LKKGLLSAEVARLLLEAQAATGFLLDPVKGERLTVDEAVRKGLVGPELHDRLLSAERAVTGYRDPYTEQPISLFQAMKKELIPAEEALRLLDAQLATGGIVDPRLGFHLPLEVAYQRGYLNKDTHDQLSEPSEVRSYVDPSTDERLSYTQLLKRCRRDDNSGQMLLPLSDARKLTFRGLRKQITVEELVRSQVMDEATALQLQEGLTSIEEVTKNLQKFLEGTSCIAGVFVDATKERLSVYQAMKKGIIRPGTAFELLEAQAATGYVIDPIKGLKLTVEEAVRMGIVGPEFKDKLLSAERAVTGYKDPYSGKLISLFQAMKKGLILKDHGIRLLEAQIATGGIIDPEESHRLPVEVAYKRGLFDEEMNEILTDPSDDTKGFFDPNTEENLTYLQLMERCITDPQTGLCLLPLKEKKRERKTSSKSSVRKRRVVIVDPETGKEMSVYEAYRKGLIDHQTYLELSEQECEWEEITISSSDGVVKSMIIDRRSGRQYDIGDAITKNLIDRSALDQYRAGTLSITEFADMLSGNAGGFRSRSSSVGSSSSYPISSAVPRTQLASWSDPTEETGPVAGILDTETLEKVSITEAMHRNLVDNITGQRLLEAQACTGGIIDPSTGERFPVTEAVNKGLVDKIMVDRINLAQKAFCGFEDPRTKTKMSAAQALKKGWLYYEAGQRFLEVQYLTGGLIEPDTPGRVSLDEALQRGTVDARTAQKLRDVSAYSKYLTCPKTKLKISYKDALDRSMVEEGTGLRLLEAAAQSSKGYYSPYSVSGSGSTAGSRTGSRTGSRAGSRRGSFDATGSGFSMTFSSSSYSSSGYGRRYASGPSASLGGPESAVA
# T3: Dys WW-ZZ, WW-ZZ domain (A3041–M3356) of human dystrophin (human, UniProt P11532 3041-3356)
# T3 sequence (looked up): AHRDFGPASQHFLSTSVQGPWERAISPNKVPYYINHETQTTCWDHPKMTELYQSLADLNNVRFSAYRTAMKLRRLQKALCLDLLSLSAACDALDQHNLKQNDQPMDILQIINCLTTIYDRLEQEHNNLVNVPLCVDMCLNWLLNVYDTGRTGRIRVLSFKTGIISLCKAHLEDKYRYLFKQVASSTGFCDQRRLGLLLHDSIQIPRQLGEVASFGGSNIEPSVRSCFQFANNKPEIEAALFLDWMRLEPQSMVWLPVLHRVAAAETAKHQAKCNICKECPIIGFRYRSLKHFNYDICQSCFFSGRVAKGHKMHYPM
# T4: Utr WW-ZZ (A2798–M3113) (human, UniProt P46939 2798-3113)
# T4 sequence (looked up): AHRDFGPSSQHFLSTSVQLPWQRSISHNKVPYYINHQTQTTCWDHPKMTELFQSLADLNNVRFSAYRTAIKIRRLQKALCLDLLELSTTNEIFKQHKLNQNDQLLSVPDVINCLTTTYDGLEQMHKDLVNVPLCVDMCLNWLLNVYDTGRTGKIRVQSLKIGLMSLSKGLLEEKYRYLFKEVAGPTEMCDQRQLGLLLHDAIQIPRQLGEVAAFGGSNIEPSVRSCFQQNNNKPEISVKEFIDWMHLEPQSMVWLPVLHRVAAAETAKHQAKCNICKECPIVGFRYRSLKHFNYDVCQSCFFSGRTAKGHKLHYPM
# B1: βDGcyt (L765–P895), cytoplasmic domain of human β-dystroglycan (domain or fragment, UniProt Q14118 765-895, looked up)
# chain: LIAGIIAMICYRKKRKGKLTLEDQATFIKKGVPIIFADELDDSKPPPSSSMPLILQEEKAPLPPPEYPNQSVPETTPLNQDTMGEYTPLRDEDPNAPPYQPPPPFTAPMEGKGSRPKNMTPYRSPPPYVPP
# B2: Eu3+-labeled version of the full-length cytoplasmic domain of βDG (βDGcyt) (domain or fragment, human, UniProt Q14118 765-895, looked up)
# chain: B1 chain
# modifications: Eu3+ label
# B3: βDGcytΔDBS (L765–D857), β-dystroglycan cytoplasmic fragment lacking the dystrophin-binding site (domain or fragment, human, UniProt Q14118 765-857, looked up)
# chain: LIAGIIAMICYRKKRKGKLTLEDQATFIKKGVPIIFADELDDSKPPPSSSMPLILQEEKAPLPPPEYPNQSVPETTPLNQDTMGEYTPLRDED
# Key:
# [1] = molecular target: T1, Ple E12–24 (M546–E1128); assay: far-Western, overlay or dot blot
# [2] = molecular target: T2, Ple R4–C (L3850–A4687); assay: far-Western, overlay or dot blot
# [3] = molecular target: T3, Dys WW-ZZ, WW-ZZ domain (A3041–M3356) …; assay: far-Western, overlay or dot blot
# [4] = molecular target: T4, Utr WW-ZZ (A2798–M3113); assay: microtiter plate-binding assay
Binder,binding result [1],binding result [2],binding result [3],binding result [4]
B1,binds,binds,binds,–
B2,–,–,–,binds
B3,binds,–,–,–

# Source: paper PMC2064082 (The Journal of Cell Biology, 2007)
